Our source for the binding values is PMC7658014.

The target in the series is T1, His6-OpaR (Vibrio parahaemolyticus (VP93?)) (UniProt Q79YV4).
T1 sequence: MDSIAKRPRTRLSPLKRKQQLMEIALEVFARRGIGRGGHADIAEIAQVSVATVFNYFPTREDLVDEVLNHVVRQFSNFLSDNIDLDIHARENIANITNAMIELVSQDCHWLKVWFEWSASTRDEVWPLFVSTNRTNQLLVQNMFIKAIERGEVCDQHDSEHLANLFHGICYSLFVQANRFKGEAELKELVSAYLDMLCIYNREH
The series can be described thus: EMSA. To be noted: EMSA: 0.4 ng probe, 20 uL of 100 mM HEPES pH 7.6, 5 mM EDTA, 50 mM (NH4)2SO4, 5 mM DTT, 1% Tween 20, 150 mM KCl, 25 C, 30 min; footprinting: 75 ng probe, DIG …. Background: Mobility shift assays separate free from complexed probe on a gel.

Take “GCGCCAAAATGGCATAGAAAGGTGAAGAATAGCATTACATTGAAAAATAACAAAAGGGCAGTGCGTGATCGCACTGCCCTTTTAATAATCAGATTGATAGTAAGATTAACTCTTCGAGCTTTATCACCAAGAGTGATGAATCAATCG (double strand) [degS P1]”: the binding entry was “binds”. With “GGTTTATCCTATAAATTGCGGATATTTTAAGAAATTAATATTCATTAAATTGATAACTGGCGACGGATCTTTATGATGACGGTTGATATGCCGATAGAGCACTCATTAGCCAGT (double strand) [lytM P1]”, the binding entry was “binds”.
